# ± gives the standard deviation of the averaged measurements.
# Tested on: ATP
# Assay: switch fluorescence ratio, 500 uM ATP over buffer (Cy3 cluster intensity, sum of 5 cycles each) (fold (ratio)); higher = stronger signal-on switching upon ATP binding; sequences stand for … in TCGTCGGCAGCGTCAGATGTGTATAAGAGACAGTTTTTTTTTTTTTTTTTTTTTTTTT…TC
# Conditions: aptamer strand: ATP DNA aptamer (quencher-CACCTGGGGGAGTATTGCGGAGGAAGG + anchor), 100 nM annealed; ATP concentration: 500 uM
# Outline: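 Exposure to 500 uM ATP lasted 15 min at 22 °C before imaging, and a selection-buffer image was taken beforehand, for Cy3-labelled switching-strand clusters on a modified Illumina MiSeq flow-cell annealed to 100 nM quencher-labelled ATP aptamer. Five buffer/ATP cycles were run with NaOH stripping and re-annealing between them. The fluorescence ratio per cluster is summed target-cycle over summed buffer-cycle Cy3 intensity, averaged per switch-domain sequence. Clusters outside 100-1000 RFU were excluded.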
sequence,measurement,value
CGGGGAGGCT,switch fluorescence ratio,0.988 ± 0.047
CGGGGAGGGT,switch fluorescence ratio,0.967 ± 0.015
CGGGGAGGTA,switch fluorescence ratio,0.9803 ± 0.0049
CGGGGAGTGG,switch fluorescence ratio,0.973 ± 0.032
CGGGGATCCT,switch fluorescence ratio,1.05 ± 0.032
CGGGGATCTA,switch fluorescence ratio,1 ± 0.018
CGGGGATGTA,switch fluorescence ratio,0.972 ± 0.031
CGGGGATTGG,switch fluorescence ratio,1 ± 0.042
CGGGGCACCG,switch fluorescence ratio,0.9868 ± 0.0032
CGGGGCACGC,switch fluorescence ratio,0.896 ± 0.05
CGGGGCACTG,switch fluorescence ratio,0.997 ± 0.018
CGGGGCAGCG,switch fluorescence ratio,1.02 ± 0.042
CGGGGCCGTT,switch fluorescence ratio,1 ± 0.019
CGGGGCGCGG,switch fluorescence ratio,0.977 ± 0.024
CGGGGCGG,switch fluorescence ratio,0.952 ± 0.057
CGGGGCGGGG,switch fluorescence ratio,0.985 ± 0.012
CGGGGCTCCG,switch fluorescence ratio,0.967 ± 0.023
CGGGGCTTAG,switch fluorescence ratio,1.0342 ± 0.00025
CGGGGCTTGT,switch fluorescence ratio,0.985 ± 0.013
CGGGGGACGT,switch fluorescence ratio,0.9794 ± 0.0085
CGGGGGAGCC,switch fluorescence ratio,1.02 ± 0.025
CGGGGGAGGT,switch fluorescence ratio,0.989 ± 0.017
CGGGGGCAGG,switch fluorescence ratio,1.03 ± 0.07
CGGGGGCATA,switch fluorescence ratio,1 ± 0.029
CGGGGGCGCG,switch fluorescence ratio,1.02 ± 0.021
CGGGGGGAAG,switch fluorescence ratio,1.01 ± 0.029
CGGGGGGCAG,switch fluorescence ratio,1.01 ± 0.024
CGGGGGGCGC,switch fluorescence ratio,0.969 ± 0.014
CGGGGGGGTC,switch fluorescence ratio,1 ± 0.036
CGGGGGGGTT,switch fluorescence ratio,1.02 ± 0.034
CGGGGGGTTA,switch fluorescence ratio,1.01 ± 0.033
CGGGGGTCAA,switch fluorescence ratio,0.99 ± 0.011
CGGGGGTCCA,switch fluorescence ratio,1.01 ± 0.055
CGGGGGTCTA,switch fluorescence ratio,1.01 ± 0.045
CGGGGGTGA,switch fluorescence ratio,1.014 ± 0.0059
CGGGGGTGAG,switch fluorescence ratio,1.04 ± 0.13
CGGGGGTGCT,switch fluorescence ratio,0.966 ± 0.044
CGGGGGTTGC,switch fluorescence ratio,0.977 ± 0.042
CGGGGTACCT,switch fluorescence ratio,1.01 ± 0.054
CGGGGTACGC,switch fluorescence ratio,1 ± 0.076
CGGGGTAGTT,switch fluorescence ratio,1.01 ± 0.004
CGGGGTATCT,switch fluorescence ratio,0.979 ± 0.018
CGGGGTCAAC,switch fluorescence ratio,1.24 ± 0.39
CGGGGTCAGT,switch fluorescence ratio,1.02 ± 0.014
CGGGGTCATG,switch fluorescence ratio,0.991 ± 0.024
CGGGGTCCTA,switch fluorescence ratio,1.01 ± 0.014
CGGGGTCCTG,switch fluorescence ratio,1.03 ± 0.054
CGGGGTCTGT,switch fluorescence ratio,0.999 ± 0.022
CGGGGTGGGA,switch fluorescence ratio,1.01 ± 0.029
CGGGGTGTGC,switch fluorescence ratio,1.01 ± 0.031
CGGGGTGTTC,switch fluorescence ratio,0.9849 ± 0.0049
CGGGGTTGCA,switch fluorescence ratio,0.978 ± 0.022
CGGGGTTGTG,switch fluorescence ratio,0.966 ± 0.014
CGGGGTTTCG,switch fluorescence ratio,0.993 ± 0.028
CGGGTAGGGC,switch fluorescence ratio,1.01 ± 0.032
CGGGTAGGGG,switch fluorescence ratio,0.996 ± 0.069
CGGGTAGTGG,switch fluorescence ratio,0.995 ± 0.032
CGGGTATACT,switch fluorescence ratio,1.1 ± 0.092
CGGGTATGGG,switch fluorescence ratio,0.984 ± 0.03
CGGGTCAACT,switch fluorescence ratio,0.963 ± 0.014
CGGGTCAGTG,switch fluorescence ratio,0.968 ± 0.04
CGGGTCGCTT,switch fluorescence ratio,0.9738 ± 0.004
CGGGTCGGGC,switch fluorescence ratio,0.991 ± 0.013
CGGGTCTCGA,switch fluorescence ratio,1.03 ± 0.04
CGGGTCTTGC,switch fluorescence ratio,0.981 ± 0.035
CGGGTGACGG,switch fluorescence ratio,1.05 ± 0.057
CGGGTGATTA,switch fluorescence ratio,1 ± 0.035
CGGGTGCCAT,switch fluorescence ratio,0.994 ± 0.018
CGGGTGCTTT,switch fluorescence ratio,1.05 ± 0.013
CGGGTGGAGC,switch fluorescence ratio,0.952 ± 0.011
CGGGTGGAGG,switch fluorescence ratio,1.02 ± 0.018
CGGGTGGTTT,switch fluorescence ratio,0.988 ± 0.03
CGGGTGTAGG,switch fluorescence ratio,1.02 ± 0.062
CGGGTTAAAC,switch fluorescence ratio,1 ± 0.027
CGGGTTAGCC,switch fluorescence ratio,0.998 ± 0.021
CGGGTTAGTA,switch fluorescence ratio,1.02 ± 0.042
CGGGTTCAGA,switch fluorescence ratio,1.051 ± 0.0054
CGGGTTGTGG,switch fluorescence ratio,1.02 ± 0.062
CGGGTTTAAT,switch fluorescence ratio,0.94 ± 0.029
CGGGTTTGAA,switch fluorescence ratio,0.972 ± 0.024
CGGTAAAGAT,switch fluorescence ratio,1 ± 0.058
CGGTAACCGC,switch fluorescence ratio,0.994 ± 0.098
CGGTAACGAA,switch fluorescence ratio,1.04 ± 0.014
CGGTACAAGT,switch fluorescence ratio,1 ± 0.032
CGGTACATTG,switch fluorescence ratio,1.004 ± 0.0053
CGGTACCGGG,switch fluorescence ratio,1.022 ± 0.0061
CGGTACTGAT,switch fluorescence ratio,1.0316 ± 0.00064
CGGTAGCGGG,switch fluorescence ratio,1.008 ± 0.007
CGGTAGGCGA,switch fluorescence ratio,0.985 ± 0.027
CGGTAGGGGA,switch fluorescence ratio,1.023 ± 0.01
CGGTAGGGGC,switch fluorescence ratio,0.968 ± 0.015
CGGTAGGTGG,switch fluorescence ratio,1.01 ± 0.057
CGGTAGGTTT,switch fluorescence ratio,0.9898 ± 0.0057
CGGTAGTTAC,switch fluorescence ratio,1.25 ± 0.059
CGGTATAGCA,switch fluorescence ratio,0.971 ± 0.027
CGGTATAGTT,switch fluorescence ratio,0.988 ± 0.022
CGGTATGGGA,switch fluorescence ratio,0.979 ± 0.044
CGGTATGGTA,switch fluorescence ratio,0.972 ± 0.023
CGGTCAAGGT,switch fluorescence ratio,1.003 ± 0.0076
CGGTCACTG,switch fluorescence ratio,1.002 ± 0.0069
CGGTCACTGT,switch fluorescence ratio,1.03 ± 0.038
CGGTCAGGGC,switch fluorescence ratio,1.02 ± 0.014
CGGTCAGGGG,switch fluorescence ratio,1.11 ± 0.023
CGGTCATACT,switch fluorescence ratio,1.21 ± 0.029
CGGTCGCCGG,switch fluorescence ratio,1.01 ± 0.02
CGGTCGCGTG,switch fluorescence ratio,0.988 ± 0.02
CGGTCGCTTG,switch fluorescence ratio,1.02 ± 0.032
CGGTGAAGCC,switch fluorescence ratio,0.984 ± 0.019
CGGTGACGCG,switch fluorescence ratio,0.982 ± 0.028
CGGTGACTCG,switch fluorescence ratio,1.03 ± 0.029
CGGTGAGCGA,switch fluorescence ratio,1.03 ± 0.044
CGGTGAGGGG,switch fluorescence ratio,0.989 ± 0.011
CGGTGAGTTG,switch fluorescence ratio,1.03 ± 0.04
CGGTGATATT,switch fluorescence ratio,1.03 ± 0.052
CGGTGCTTTT,switch fluorescence ratio,1 ± 0.011
CGGTGGGCTA,switch fluorescence ratio,1.013 ± 0.0052
CGGTGGGGGT,switch fluorescence ratio,0.988 ± 0.022
CGGTGGGGTA,switch fluorescence ratio,1.01 ± 0.033
CGGTGTAGCT,switch fluorescence ratio,1.03 ± 0.019
CGGTGTGCGG,switch fluorescence ratio,0.995 ± 0.037
CGGTGTTAGC,switch fluorescence ratio,0.976 ± 0.0015
CGGTGTTGGC,switch fluorescence ratio,1.05 ± 0.081
CGGTGTTTTC,switch fluorescence ratio,0.972 ± 0.046
CGGTTAAAGG,switch fluorescence ratio,0.974 ± 0.03
CGGTTAAGGG,switch fluorescence ratio,0.982 ± 0.038
CGGTTAGAGG,switch fluorescence ratio,0.989 ± 0.0013
CGGTTAGATA,switch fluorescence ratio,0.987 ± 0.019
CGGTTATTGA,switch fluorescence ratio,1.02 ± 0.022
CGGTTCGCCT,switch fluorescence ratio,0.998 ± 0.016
CGGTTCGGCT,switch fluorescence ratio,1.04 ± 0.047
CGGTTCTACG,switch fluorescence ratio,1.009 ± 0.0053
CGGTTCTGTG,switch fluorescence ratio,1 ± 0.012
CGGTTGACGG,switch fluorescence ratio,0.9494 ± 0.0017
CGGTTGAGTT,switch fluorescence ratio,1.02 ± 0.04
CGGTTGCTTG,switch fluorescence ratio,0.996 ± 0.034
CGGTTGGGGA,switch fluorescence ratio,0.985 ± 0.036
CGGTTGGTTT,switch fluorescence ratio,1.02 ± 0.017
CGGTTGTTTT,switch fluorescence ratio,1.023 ± 0.0065
CGGTTTAGCG,switch fluorescence ratio,0.98 ± 0.029
CGGTTTAGGC,switch fluorescence ratio,0.93 ± 0.026
CGGTTTATTG,switch fluorescence ratio,1 ± 0.036
CGGTTTCTCG,switch fluorescence ratio,0.982 ± 0.02
CGGTTTGGGA,switch fluorescence ratio,0.994 ± 0.035
CGGTTTGTAT,switch fluorescence ratio,0.985 ± 0.023
CGGTTTTAGC,switch fluorescence ratio,0.968 ± 0.042
CGGTTTTATT,switch fluorescence ratio,0.982 ± 0.028
CGGTTTTGAG,switch fluorescence ratio,1.01 ± 0.034
CGGTTTTGTG,switch fluorescence ratio,0.962 ± 0.031
CGTAAAACGC,switch fluorescence ratio,1.02 ± 0.03
CGTAAAAGGC,switch fluorescence ratio,0.994 ± 0.027
CGTAAAGCAG,switch fluorescence ratio,1.01 ± 0.061
CGTAAAGGGG,switch fluorescence ratio,0.983 ± 0.026
CGTAAATGTG,switch fluorescence ratio,0.9668 ± 0.0066
